According to article PMC7884425, “HPF1 remodels the active site of PARP1 to enable the serine ADP-ribosylation of histones” (Nature Communications, 2021):

T1: human HPF1 K307S (human, UniProt Q9NWY4 1-346, K307S)
T1 construct: HPF1, human; not shown: His6, N-terminal, cleaved
T1 sequence (looked up): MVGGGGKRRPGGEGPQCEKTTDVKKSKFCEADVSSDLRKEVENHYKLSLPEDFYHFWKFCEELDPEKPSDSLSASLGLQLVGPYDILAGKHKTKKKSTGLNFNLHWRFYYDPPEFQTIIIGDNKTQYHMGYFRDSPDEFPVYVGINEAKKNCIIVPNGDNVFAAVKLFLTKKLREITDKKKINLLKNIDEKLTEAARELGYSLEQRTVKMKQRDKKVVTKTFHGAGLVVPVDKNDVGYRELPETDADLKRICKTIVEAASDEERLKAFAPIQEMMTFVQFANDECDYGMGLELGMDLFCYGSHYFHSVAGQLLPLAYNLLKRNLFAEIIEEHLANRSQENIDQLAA

T2: human HPF1 E138K (human, UniProt Q9NWY4 1-346, E138K)
T2 construct: HPF1, human; not shown: His6, N-terminal, cleaved
T2 sequence (looked up): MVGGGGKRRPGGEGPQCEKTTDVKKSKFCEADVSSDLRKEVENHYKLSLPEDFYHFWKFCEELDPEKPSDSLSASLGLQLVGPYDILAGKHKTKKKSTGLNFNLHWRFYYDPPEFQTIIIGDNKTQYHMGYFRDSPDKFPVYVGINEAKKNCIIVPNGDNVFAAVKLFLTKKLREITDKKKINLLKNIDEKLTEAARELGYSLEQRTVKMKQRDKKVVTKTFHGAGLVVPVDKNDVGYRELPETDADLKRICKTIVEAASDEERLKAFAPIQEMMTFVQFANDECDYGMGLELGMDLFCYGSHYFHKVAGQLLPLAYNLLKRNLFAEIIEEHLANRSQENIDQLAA

T3: human HPF1 F139S (human, UniProt Q9NWY4 1-346, F139S)
T3 construct: HPF1, human; also called HPF F139S; not shown: His6, N-terminal, cleaved
T3 sequence (looked up): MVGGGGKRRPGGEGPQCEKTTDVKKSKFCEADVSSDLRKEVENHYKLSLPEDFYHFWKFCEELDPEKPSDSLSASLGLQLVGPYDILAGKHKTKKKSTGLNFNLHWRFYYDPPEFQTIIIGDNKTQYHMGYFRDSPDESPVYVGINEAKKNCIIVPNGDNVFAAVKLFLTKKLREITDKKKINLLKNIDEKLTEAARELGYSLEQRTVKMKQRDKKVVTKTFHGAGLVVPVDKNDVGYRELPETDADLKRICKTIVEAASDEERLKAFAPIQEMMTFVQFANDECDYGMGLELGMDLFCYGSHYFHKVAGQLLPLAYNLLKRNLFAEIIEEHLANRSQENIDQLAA

T4: human HPF1 K216E (human, UniProt Q9NWY4 1-346, K216E)
T4 construct: HPF1, human; not shown: His6, N-terminal, cleaved
T4 sequence (looked up): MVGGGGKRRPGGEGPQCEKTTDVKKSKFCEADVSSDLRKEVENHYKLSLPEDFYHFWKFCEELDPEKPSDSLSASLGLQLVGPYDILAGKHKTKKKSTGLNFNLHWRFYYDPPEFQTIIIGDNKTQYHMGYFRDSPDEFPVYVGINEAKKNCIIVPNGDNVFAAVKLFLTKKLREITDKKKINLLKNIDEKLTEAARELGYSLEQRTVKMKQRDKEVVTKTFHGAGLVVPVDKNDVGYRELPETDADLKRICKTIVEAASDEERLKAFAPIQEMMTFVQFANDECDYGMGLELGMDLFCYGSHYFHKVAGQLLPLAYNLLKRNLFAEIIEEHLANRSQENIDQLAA

T5: human HPF1 R239A (human, UniProt Q9NWY4 1-346, R239A)
T5 construct: HPF1, human; not shown: His6, N-terminal, cleaved
T5 sequence (looked up): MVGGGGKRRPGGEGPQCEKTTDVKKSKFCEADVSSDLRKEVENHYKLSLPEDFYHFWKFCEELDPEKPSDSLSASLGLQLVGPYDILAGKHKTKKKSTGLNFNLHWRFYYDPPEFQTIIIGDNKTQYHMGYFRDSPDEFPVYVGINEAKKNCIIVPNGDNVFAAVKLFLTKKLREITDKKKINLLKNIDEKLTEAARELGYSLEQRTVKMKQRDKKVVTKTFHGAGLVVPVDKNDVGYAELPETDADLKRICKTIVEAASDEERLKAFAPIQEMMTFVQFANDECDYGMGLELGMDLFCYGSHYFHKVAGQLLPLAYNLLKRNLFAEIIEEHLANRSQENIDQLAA

T6: human HPF1 E284A (human, UniProt Q9NWY4 1-346, E284A)
T6 construct: HPF1, human; not shown: His6, N-terminal, cleaved
T6 sequence (looked up): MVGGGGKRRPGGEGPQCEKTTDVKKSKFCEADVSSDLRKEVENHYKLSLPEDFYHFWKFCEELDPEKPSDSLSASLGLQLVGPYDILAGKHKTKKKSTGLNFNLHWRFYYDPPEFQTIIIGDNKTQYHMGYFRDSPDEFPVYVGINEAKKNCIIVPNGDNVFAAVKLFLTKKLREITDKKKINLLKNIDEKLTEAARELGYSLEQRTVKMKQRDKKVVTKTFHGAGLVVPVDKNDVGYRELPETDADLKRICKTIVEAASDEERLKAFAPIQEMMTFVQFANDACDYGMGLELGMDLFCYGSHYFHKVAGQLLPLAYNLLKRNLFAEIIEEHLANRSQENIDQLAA

T7: human HPF1 F280A (human, UniProt Q9NWY4 1-346, F280A)
T7 construct: HPF1, human; not shown: His6, N-terminal, cleaved
T7 sequence (looked up): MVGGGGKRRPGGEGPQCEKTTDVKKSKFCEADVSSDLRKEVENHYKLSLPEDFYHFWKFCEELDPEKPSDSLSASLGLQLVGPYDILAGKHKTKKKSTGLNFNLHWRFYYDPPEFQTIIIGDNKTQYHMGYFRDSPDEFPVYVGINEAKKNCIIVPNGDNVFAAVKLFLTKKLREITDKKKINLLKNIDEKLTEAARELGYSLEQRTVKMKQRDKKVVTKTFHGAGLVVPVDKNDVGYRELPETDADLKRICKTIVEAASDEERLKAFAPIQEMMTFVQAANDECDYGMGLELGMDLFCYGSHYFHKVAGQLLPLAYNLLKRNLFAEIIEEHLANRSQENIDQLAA

T8: human HPF1 C285H (human, UniProt Q9NWY4 1-346, C285H)
T8 construct: HPF1, human; not shown: His6, N-terminal, cleaved
T8 sequence (looked up): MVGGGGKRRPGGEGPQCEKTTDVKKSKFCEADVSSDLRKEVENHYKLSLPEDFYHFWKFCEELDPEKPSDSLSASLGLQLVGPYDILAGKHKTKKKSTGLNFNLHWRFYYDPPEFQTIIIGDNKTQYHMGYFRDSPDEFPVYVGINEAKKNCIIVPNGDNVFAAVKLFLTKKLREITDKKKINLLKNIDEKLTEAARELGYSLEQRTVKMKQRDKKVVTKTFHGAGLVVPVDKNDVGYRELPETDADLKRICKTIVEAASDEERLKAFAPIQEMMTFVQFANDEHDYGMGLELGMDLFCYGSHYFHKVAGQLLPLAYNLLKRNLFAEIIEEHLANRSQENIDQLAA

B1: human HPF1 (histone PARylation factor 1), wild-type (natural protein, UniProt Q9NWY4 1-346, looked up)
chain: MVGGGGKRRPGGEGPQCEKTTDVKKSKFCEADVSSDLRKEVENHYKLSLPEDFYHFWKFCEELDPEKPSDSLSASLGLQLVGPYDILAGKHKTKKKSTGLNFNLHWRFYYDPPEFQTIIIGDNKTQYHMGYFRDSPDEFPVYVGINEAKKNCIIVPNGDNVFAAVKLFLTKKLREITDKKKINLLKNIDEKLTEAARELGYSLEQRTVKMKQRDKKVVTKTFHGAGLVVPVDKNDVGYRELPETDADLKRICKTIVEAASDEERLKAFAPIQEMMTFVQFANDECDYGMGLELGMDLFCYGSHYFHKVAGQLLPLAYNLLKRNLFAEIIEEHLANRSQENIDQLAA
notes: HPF1 (C4orf27), human; TEV site ENLYFQG between the His tag and the protein; the tag was removed with TEV protease; also called C4orf27; not shown: His6, N-terminal, cleaved
B2: human PARP1-CAT ΔHD (661-678-GSGSGSGG-787-1014) (domain or fragment)
chain: TKSKLPKPVQDLIKMIFDGSGSGSGGKDPIDVNYEKLKTDIKVVDRDSEEAEIIRKYVKNTHATTHNAYDLEVIDIFKIEREGECQRYKPFKQLHNRRLLWHGSRTTNFAGILSQGLRIAPPEAPVTGYMFGKGIYFADMVSKSANYCHTSQGDPIGLILLGEVALGNMYELKHASHISKLPKGKHSVKGLGKTTPDPSANISLDGVDVPLGTGISSGVNDTSLLYNEYIVYDIAQVNLKYLLKLKFNFKTSLW
notes: PARP1, human, catalytic domain, residues 661-678; linker that replaces residues 679-786 (most of the HD subdomain); PARP1, human, catalytic domain (ART), residues 787-1014; also called CAT△HD; not shown: His6, N-terminal, cleaved

Tests used:
Assay in all cases: ITC; HPF1 wild-type or mutant 0.3 or 0.4 mM in the syringe, PARP1 CAT-ΔHD (or full-length CAT) 0.02 mM in the cell; 25 °C; 20 mM Tris-pH 8.0, 150 mM NaCl, 1 mM TCEP, 1 mM MgCl2
Conditions in all cases: both partners purified
[1] = target: B2
[2] = target: B1
[3] = target: B1; remark: listed apart in the source
human HPF1 K307S = target: T1, human HPF1 K307S
human HPF1 E138K = target: T2, human HPF1 E138K
human HPF1 F139S = target: T3, human HPF1 F139S
human HPF1 K216E = target: T4, human HPF1 K216E
human HPF1 R239A = target: T5, human HPF1 R239A
human HPF1 E284A = target: T6, human HPF1 E284A
human HPF1 F280A = target: T7, human HPF1 F280A
human HPF1 C285H = target: T8, human HPF1 C285H

Row | Binder | stoichiometry N [1] | Ka [2] [M⁻¹] | Kd [2] [nM] | Kd [3] [nM] | Kd (human HPF1 K307S) [nM] | Kd (human HPF1 E138K) [nM] | Kd (human HPF1 F139S) [nM] | Kd (human HPF1 K216E) [nM] | Kd (human HPF1 R239A) [nM] | Kd (human HPF1 E284A) [nM] | Kd (human HPF1 F280A) [nM] | Kd (human HPF1 C285H) [nM]
1 | B1 | 1 |  |  |  |  |  |  |  |  |  |  | 
2 | B2 |  | 758000 | ~1300 | 1500 | 9300 | 1700 | 2400 | 1400 | 2400 | 300 | 6000 | 28700
